Assay results reported in patent US20200000897A1 (published 2020).

B1: LASSPAGHK (peptide)
peptide: LASSPAGHK
B2: ASLAAAVLAK (peptide)
peptide: ASLAAAVLAK
B3: ALLGVIIAKK (peptide)
peptide: ALLGVIIAKK
B4: TRMQKAGFLYY (peptide)
peptide: TRMQKAGFLYY
B5: VSIRNTLLY (peptide)
peptide: VSIRNTLLY
B6: SLLKPSGDYFK (peptide)
peptide: SLLKPSGDYFK
B7: VVYDTMIEK (peptide)
peptide: VVYDTMIEK
B8: SIYKKAVYR (peptide)
peptide: SIYKKAVYR
B9: LLLAAVTVK (peptide)
peptide: LLLAAVTVK
B10: AILHPFRAK (peptide)
peptide: AILHPFRAK
B11: SPRVYWLGLNDR (peptide)
peptide: SPRVYWLGLNDR
B12: KINPTASLK (peptide)
peptide: KINPTASLK
B13: ATNGKVLKKR (peptide)
peptide: ATNGKVLKKR
B14: KIICGVHYLY (peptide)
peptide: KIICGVHYLY
B15: TLLSYELAFK (peptide)
peptide: TLLSYELAFK
B16: TIASVLVAR (peptide)
peptide: TIASVLVAR
B17: TVFVELWLK (peptide)
peptide: TVFVELWLK
B18: VVYDTMIEKF (peptide)
peptide: VVYDTMIEKF
B19: KTLGKIAEK (peptide)
peptide: KTLGKIAEK
B20: RVYPHKTLY (peptide)
peptide: RVYPHKTLY
B21: KMMKRLMTVEK (peptide)
peptide: KMMKRLMTVEK
B22: GGLSSQGVYY (peptide)
peptide: GGLSSQGVYY
B23: KVFAEHKISY (peptide)
peptide: KVFAEHKISY
B24: ATIGLSVSK (peptide)
peptide: ATIGLSVSK
B25: SLLEADPFLK (peptide)
peptide: SLLEADPFLK
B26: ILNLNKMVK (peptide)
peptide: ILNLNKMVK
B27: VSYNRLIK (peptide)
peptide: VSYNRLIK
B28: AVVQGLVEK (peptide)
peptide: AVVQGLVEK
B29: MKTLPAMLGTGK (peptide)
peptide: MKTLPAMLGTGK
B30: ASSFRPLLSK (peptide)
peptide: ASSFRPLLSK
B31: SLLTVSGAWAK (peptide)
peptide: SLLTVSGAWAK
B32: VSLGIAVSK (peptide)
peptide: VSLGIAVSK
B33: QVLDLQSVK (peptide)
peptide: QVLDLQSVK
B34: SLRGSFPILY (peptide)
peptide: SLRGSFPILY
B35: KIKKPLSYR (peptide)
peptide: KIKKPLSYR
B36: ATSPPASVR (peptide)
peptide: ATSPPASVR
B37: RLRDYISSLK (peptide)
peptide: RLRDYISSLK
B38: RVDSKQRYY (peptide)
peptide: RVDSKQRYY
B39: IIFIPATILLK (peptide)
peptide: IIFIPATILLK
B40: RLYDAYVNR (peptide)
peptide: RLYDAYVNR
B41: ALSRMSQQY (peptide)
peptide: ALSRMSQQY
B42: RIGNKGIYK (peptide)
peptide: RIGNKGIYK
B43: KVASFTVIGY (peptide)
peptide: KVASFTVIGY
B44: RLYAPVVNISRL (peptide)
peptide: RLYAPVVNISRL
B45: AATIISSAK (peptide)
peptide: AATIISSAK
B46: SLFEGIYTIK (peptide)
peptide: SLFEGIYTIK
B47: KLQNLPTLLY (peptide)
peptide: KLQNLPTLLY
B48: VSLSKMLKK (peptide)
peptide: VSLSKMLKK
B49: RLAQYTIER (peptide)
peptide: RLAQYTIER
B50: MLYYPSVSR (peptide)
peptide: MLYYPSVSR
B51: TVFLSKYLKK (peptide)
peptide: TVFLSKYLKK
B52: RMGFRTLSK (peptide)
peptide: RMGFRTLSK
B53: TVYVAMCHKF (peptide)
peptide: TVYVAMCHKF
B54: AVAFFVLPSK (peptide)
peptide: AVAFFVLPSK
B55: ATNGKVLKK (peptide)
peptide: ATNGKVLKK
B56: RIYVYVKRK (peptide)
peptide: RIYVYVKRK
B57: LLRSGLTLR (peptide)
peptide: LLRSGLTLR
B58: GLAAGALLLY (peptide)
peptide: GLAAGALLLY
B59: RALGVPFVPR (peptide)
peptide: RALGVPFVPR
B60: KVLTRNIEY (peptide)
peptide: KVLTRNIEY
B61: RLLPGKVVWK (peptide)
peptide: RLLPGKVVWK
B62: VAFFVLPSK (peptide)
peptide: VAFFVLPSK
B63: LIGPLLICK (peptide)
peptide: LIGPLLICK
B64: KLFMPRPK (peptide)
peptide: KLFMPRPK
B65: PLAMLAATCNK (peptide)
peptide: PLAMLAATCNK
B66: ALARVSSVKL (peptide)
peptide: ALARVSSVKL
B67: VIGTTSSPK (peptide)
peptide: VIGTTSSPK

Target: T1, HLA-A*03:01 (human)
T1 construct: MHC class I monomer first loaded with a UV-sensitive peptide that is cleaved by UV irradiation and exchanged for the test peptide; captured on streptavidin plates; also called peptide-receptive MHC molecules
Experiment: UV-ligand exchange, anti-b2m ELISA; peptide exchange yield grade (>10% +, >20% ++, >50% +++, >75% ++++)
From the text: Candidate peptides for T cell based therapies according to the present invention were further tested for their MHC binding capacity (affinity). The individual peptide-MHC complexes were produced by UV-ligand exchange, where a UV-sensitive peptide is cleaved upon UV-irradiation and exchanged with the peptide of interest as analyzed. Only peptide candidates that can effectively bind and stabilize the peptide-receptive MHC molecules prevent dissociation of the MHC complexes. To determine the yield of the exchange reaction, an ELISA was performed based on the detection of the light chain (β2m) of stabilized MHC complexes. The assay was performed as generally described in Rodenko et al. (Rodenko et al., 2006)
96 well MAXISorp plates (NUNC) were coated over night with 2 ug/ml streptavidin in PBS at room temperature, washed 4× and blocked forl h at 37° C. in 2% BSA containing blocking buffer. Refolded HLA-A*02:01/MLA-001 monomers served as standards, covering the range of 15-500 ng/ml. Peptide-MHC monomers of the UV-exchange reaction were diluted 100-fold in blocking buffer. Samples were incubated for 1 h at 37° C., washed four times, incubated with 2 ug/ml HRP conjugated anti-β2m for 1 h at 37° C., washed again and detected with TMB solution that is stopped with […]. Absorption was measured at 450 nm.

peptide exchange yield | Binder
50 to 75% | B1
50 to 75% | B2
> 75% | B3
20 to 50% | B4
10 to 20% | B5
50 to 75% | B6
50 to 75% | B7
> 75% | B8
20 to 50% | B9
50 to 75% | B10
10 to 20% | B11
50 to 75% | B12
> 75% | B13
10 to 20% | B14
> 75% | B15
20 to 50% | B16
20 to 50% | B17
> 75% | B18
> 75% | B19
50 to 75% | B20
> 75% | B21
20 to 50% | B22
50 to 75% | B23

peptide exchange yield | Binder
> 75% | B24
50 to 75% | B25
50 to 75% | B26
50 to 75% | B27
20 to 50% | B28
20 to 50% | B29
50 to 75% | B30
> 75% | B31
20 to 50% | B32
20 to 50% | B33
10 to 20% | B34
> 75% | B35
> 75% | B36
> 75% | B37
> 75% | B38
> 75% | B39
> 75% | B40
> 75% | B41
50 to 75% | B42
50 to 75% | B43
50 to 75% | B44
10 to 20% | B45
> 75% | B46

peptide exchange yield | Binder
50 to 75% | B47
50 to 75% | B48
> 75% | B49
> 75% | B50
50 to 75% | B51
> 75% | B52
> 75% | B53
> 75% | B54
> 75% | B55
50 to 75% | B56
20 to 50% | B57
20 to 50% | B58
> 75% | B59
50 to 75% | B60
> 75% | B61
20 to 50% | B62
> 75% | B63
50 to 75% | B64
20 to 50% | B65
50 to 75% | B66
50 to 75% | B67
